The target in test [1] is T1, FcgRIIb extracellular domain, C-terminal His tag (human, UniProt P31994 43-217).
T1 construct: extracellular domain; also called FcγRIIb; 2b; not shown: His tag attached to the C terminus
T1 sequence (looked up): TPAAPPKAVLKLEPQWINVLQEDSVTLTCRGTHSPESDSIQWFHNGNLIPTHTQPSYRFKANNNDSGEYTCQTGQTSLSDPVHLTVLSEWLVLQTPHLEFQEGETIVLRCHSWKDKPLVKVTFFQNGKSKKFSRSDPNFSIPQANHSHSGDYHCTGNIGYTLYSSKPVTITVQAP
Nature of the test: SPR (Biacore), antibody captured on chip, FcgR extracellular domain as analyte, 25 C, 1:1 Langmuir fit; experiment #3. As for the experimental part: (§1) Antibodies of interest were analyzed for the interaction to FcgR according to the method described in Reference Example 8.
(§2) Analysis of interaction between obj ective antibody and the FcγR was carried out using Biacore T100 (GE Healthcare), Biacore T200, Biacore A100, and Biacore 4000. HBS-EP+ (GE Healthcare) was used as the running buffer, and the measurement temperature was set to 25° C. Chips produced by immobilizing the antigen peptide by the amine coupling method to a Series S sensor Chip CM5 (GE Healthcare), chips produced by allowing preliminarily biotinylated antigen peptides to interact with and immobilize onto a Series S Sensor Chip SA (certified) (GE Healthcare), chips produced by immobilizing Protein L (ACTIGEN, BioVision) to Series S Sencor Chip CM5 (GE Healthcare), or chips produced by immobilizing Protein A/G (Thermo Scientific) to Series S Sencor Chip CM5 (GE Healthcare) were used. Antibodies of interest were captured onto these chips, and allowed to interact to each FcγR diluted with running buffer. To regenerate and repeatedly use the chip, the antibodies captured onto the chip were washed off by reacting 10 mM glycine-HCl, pH 1.5.
A general note: Surface plasmon resonance follows binding to a sensor surface in real time, without labels.

The target in test [2] is T2, FcgRIIa H type extracellular domain, C-terminal His tag (human, UniProt P12318 34-217).
T2 construct: extracellular domain; also called FcγRIIa H; 2aH; not shown: His tag attached to the C terminus
T2 sequence (looked up): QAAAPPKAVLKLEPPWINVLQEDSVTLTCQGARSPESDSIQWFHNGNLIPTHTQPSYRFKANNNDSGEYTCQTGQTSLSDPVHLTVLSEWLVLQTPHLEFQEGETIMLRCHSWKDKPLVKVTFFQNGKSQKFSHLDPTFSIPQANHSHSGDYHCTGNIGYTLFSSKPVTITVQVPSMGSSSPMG
Described as above. As for the experimental part:
as §1, §2

Test [3] addresses T3, FcgRI extracellular domain, C-terminal His tag (human, UniProt P12314 16-292).
T3 construct: extracellular domain; also called FcγRIa; FcgRIa; not shown: His tag attached to the C terminus
The test is described as above. As for the experimental part: as §1, §2

In test [4] the target is T4, FcgRIIa R type extracellular domain, C-terminal His tag (human, UniProt P12318 34-217).
T4 construct: extracellular domain; also called FcγRIIa R; 2aR; not shown: His tag attached to the C terminus
T4 sequence (looked up): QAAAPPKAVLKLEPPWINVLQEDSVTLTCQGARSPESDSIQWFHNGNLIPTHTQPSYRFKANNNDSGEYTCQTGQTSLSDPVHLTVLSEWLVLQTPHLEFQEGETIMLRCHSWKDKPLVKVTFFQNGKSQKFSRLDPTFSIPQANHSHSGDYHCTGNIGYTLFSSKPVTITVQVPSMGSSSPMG
The description is as above. As for the experimental part:
as §1, §2

Test [5] concerns the target T5, FcgRIIIa F type extracellular domain, C-terminal His tag (human, UniProt P08637 17-208).
T5 construct: extracellular domain; also called FcγRIIIa F; 3aF; not shown: His tag attached to the C terminus
The test is described as above. As for the experimental part:
as §1, §2

For test [6], the target named is T6, FcgRIIIa V type extracellular domain, C-terminal His tag (human, UniProt P08637 17-208).
T6 construct: extracellular domain; also called FcγRIIIa V; 3aV; not shown: His tag attached to the C terminus
The description is as above. As for the experimental part:
as §1, §2

Test [7] has as its target T7, FcγRIIIa extracellular domain with C-terminal His tag (human, UniProt P08637 17-208).
T7 construct: extracellular domain; also called FcgRIIIa; CD16A
Nature of the test: SPR (Biacore), antibody captured, FcγRIIIa as analyte, 1:1 Langmuir kinetic fit. As for the experimental part:
The prepared antibodies were compared for the FcγRIIIa-binding activity using, as an indicator, KD for FcγRIIIa that was determined according to the method described in Reference Example 2.
(§3) Analysis of interaction between objective antibody and the FcγR was carried out using Biacore T100 (GE Healthcare). HBS-EP+ (GE Healthcare) was used as the running buffer, and the measurement temperature was set to 25° C. Chips produced by immobilizing the antigen peptide by the amine coupling method to a Series S Sencor Chip CM5 (GE Healthcare), or alternatively, chips produced by allowing preliminarily biotinylated antigen peptides to interact with and immobilize onto a Series S Sensor Chip SA (certified) (GE Healthcare) were used. Antibodies of interest were captured onto an antigen peptide-immobilized chip, and allowed to interact to each FcγR diluted with running buffer. To regenerate and repeatedly use the chip, the antibodies captured on the chip were washed off by reacting 10 mM glycine-HCl, pH 1.5.
(§4) The FcγR-binding activity of each antibody was assessed primarily using as an indicator the FcγR-binding activity and dissociation constant for FcγR.

Test [8] addresses T7, FcγRIIIa extracellular domain with …. Nature of the test: SPR (Biacore), ratio of KD values for FcγRIIIa.
Description: GpH7-A57 (SEQ ID NO: 40) resulting from the introduction of all of S239D, A330L, and I332E into GpH7-A5; GpH7-B78 (SEQ ID NO: 41) resulting from the introduction of all of S239D, A330L, and I332E into GpH7-B3; GpH7-TA7 (SEQ ID NO: 31) resulting from the introduction of all of L234Y, G236W, and S298A into GpH7-A5; and GpH7-TA45 (SEQ ID NO: 32) resulting from the introduction of all of L234Y, G236W, and S298A into GpH7-B3. […] The prepared antibodies were compared for the FcγRIIIa-binding activity using, as an indicator, KD for FcγRIIIa that was determined according to the method described in Reference Example 2.
as §3

Test [9] deals with T8, FcgRIIb extracellular domain with C-terminal His tag (human, UniProt P31994 43-217).
T8 construct: extracellular domain; also called FcγRIIb; not shown: His tag attached to the C terminus
T8 sequence (looked up): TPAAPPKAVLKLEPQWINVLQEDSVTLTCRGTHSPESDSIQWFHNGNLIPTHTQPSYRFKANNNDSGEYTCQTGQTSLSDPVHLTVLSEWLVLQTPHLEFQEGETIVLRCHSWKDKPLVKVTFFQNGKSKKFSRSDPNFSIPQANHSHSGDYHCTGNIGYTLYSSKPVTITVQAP
Nature of the test: SPR (Biacore T100), antibody captured on antigen peptide chip, FcγR extracellular domain as analyte, kinetic analysis. As for the experimental part:
(§5) The prepared antibodies were assayed as to the KDs for FcγRIIIa and FcγRIIb according to the method described in Reference Example 2.
as §3, §4

The target in test [10] is T9, FcgRIIIa F extracellular domain with C-terminal His tag (human, UniProt P08637 17-208).
T9 construct: extracellular domain; also called FcγRIIIa F; FcγRIIIa (F158); not shown: His tag attached to the C terminus
Described as above. As for the experimental part:
as §5, §3, §4

Test [11] deals with T9, FcgRIIIa F extracellular domain with …. Nature of the test: ratio of SPR (Biacore) KDs, FcγRIIb as reference. How it is done:
as §5, §3, §4

T9 sequence (P08637 17-208): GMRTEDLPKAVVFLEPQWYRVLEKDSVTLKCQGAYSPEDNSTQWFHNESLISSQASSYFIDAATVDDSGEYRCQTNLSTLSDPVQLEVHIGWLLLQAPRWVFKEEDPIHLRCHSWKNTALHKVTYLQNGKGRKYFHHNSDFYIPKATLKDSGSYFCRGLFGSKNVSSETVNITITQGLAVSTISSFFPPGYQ
T7 sequence (P08637 17-208): as above
T3 sequence (P12314 16-292): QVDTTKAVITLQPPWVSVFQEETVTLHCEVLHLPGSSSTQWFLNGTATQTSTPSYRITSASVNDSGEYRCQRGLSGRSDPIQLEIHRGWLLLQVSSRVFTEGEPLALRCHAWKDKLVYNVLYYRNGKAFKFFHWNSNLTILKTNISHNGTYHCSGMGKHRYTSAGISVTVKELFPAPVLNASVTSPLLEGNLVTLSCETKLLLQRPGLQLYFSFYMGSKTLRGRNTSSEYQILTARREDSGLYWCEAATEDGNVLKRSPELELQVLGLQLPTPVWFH
T6 sequence (P08637 17-208 F176V limits assumed): as the sequence (P08637 17-208) above, with F160V counted along it
T5 sequence (P08637 17-208): as the sequence (P08637 17-208) above

B1: H240-FA021/H240-FB084/L73-k0 (antibody, human IgG1, kappa)
heavy 1: QDQLVQSGAEVKKPGASVKVSCKASGFNIKDTYIQWVRQAPGQGLEWMGRIDPLRKQTKYREKFEGRVTITADTSTNTAYMELSSLRSEDTAVYYCVRSGREFDYWGQGTLVTVSSASTKGPSVFPLAPSSKSTSGGTAALGCLVKDYFPEPVTVSWNSGALTSGVHTFPAVLQSSGLYSLSSVVTVPSSSLGTKTYTCNVNHKPSNTKVDKKVEPKSCDKTHTCPPCPAPEYYWGPSVFLFPPKPKDTLMISRTPEVTCVVVDVSDEEPEVKFNWYVDGVEVHNAKTKPREEQYNATYRVVSVLTVLHQDWLNGKEYKCKVSNKALPAPIEKTISKAKGQPREPQVYTLPPSRKEKTKNQVSLTCLVKGFYPSDIAVEWESNGQPENNYKTTPPKLDSDGSFFLYSKLTVDKSRWQQGNVFSCSVMHEALHNRYTQKSLSLSP
heavy 2: QDQLVQSGAEVKKPGASVKVSCKASGFNIKDTYIQWVRQAPGQGLEWMGRIDPLRKQTKYREKFEGRVTITADTSTNTAYMELSSLRSEDTAVYYCVRSGREFDYWGQGTLVTVSSASTKGPSVFPLAPSSKSTSESTAALGCLVEDYFPEPVTVSWNSGALTSGVHTFPAVLQSSGLYSLSSVVTVPSSNFGTQTYTCNVDHKPSNTKVDKTVEPKSCDKTHTCPPCPAPELLGGPSVFLFPPKPKDTLMISRTPEVTCVVVDVSHEEPEVQFNWYVDGVEVHNAETKPREEQYNSTYRVVSVLTVLHQDWLNGKEYKCKVSNDALPMPIEETISKAKGQPREPQVYTLPPSREEMTKNQVSLTCLVKGFYPSDIAVEWESEGQPENNYKTTPPVLDSDGSFFLYSKLTVDKSRWQQGNVFSCSVMHEALHNHYTQESLSLSP
light: DIQMTQSPSSLSASVGDRVTITCRASQDIHKYIAWYQQKPGQAPRLLIQYTSTLQPGVPSRFSGSGSGTDYTFTISSLQPEDIATYYCLQYEQLRTFGGGTKVEIKRTVAAPSVFIFPPSDEQLKSGTASVVCLLNNFYPREAKVQWKVDNALQSGNSQESVTEQDSKDSTYSLSSTLTLSKADYEKHKVYACEVTHQGLSSPVTKSFNRGEC
notes: Heterodimerized anti-epiregulin IgG1 antibody; also called H240-FA021/H240-BF084/L73-k0
What is called Kd is the concentration at which binding is half-saturated. On to B1, for which the Kd in test [1] amounted to 1300 nM; in test [2], 69 nM; in test [3], 0.033 nM; in test [4], 230 nM; in test [5], 3.3 nM; in test [6] it was 1.3 nM.

B2: GpH7-G1d/GpL16-k0 (antibody, human IgG1, kappa)
heavy: not shown
light: DIVMTQSPLSLPVTPGEPASISCQASESLVHSNRNTYLHWYLQKPGQSPQLLIYKVSNRFSGVPDRFSGSGSGTDFTLKISRVEAEDVGVYYCSQNTHVPPTFGQGTKVEIERTVAAPSVFIFPPSDEQLKSGTASVVCLLNNFYPREAKVQWKVDNALQSGNSQESVTEQDSKDSTYSLSSTLTLSKADYEKHKVYACEVTHQGLSSPVTKSFNRGEC
notes: Anti-glypican-3 native-type human IgG1 control; also called native IgG1
In the case of B2, binding in test [7] was put at a Kd of 1200 nM. For the same molecule, the “KD ratio 1 (KD of GpH7-G1d/GpL16-k0 divided by KD of the antibody)” value in test [8] was 1 fold.

B3: GpH7-G1d/GpL16-k0 (antibody, human IgG1, kappa)
heavy: not shown
light: DIVMTQSPLSLPVTPGEPASISCQASESLVHSNRNTYLHWYLQKPGQSPQLLIYKVSNRFSGVPDRFSGSGSGTDFTLKISRVEAEDVGVYYCSQNTHVPPTFGQGTKVEIERTVAAPSVFIFPPSDEQLKSGTASVVCLLNNFYPREAKVQWKVDNALQSGNSQESVTEQDSKDSTYSLSSTLTLSKADYEKHKVYACEVTHQGLSSPVTKSFNRGEC
notes: Anti-glypican-3 IgG1 lacking the C-terminal Gly and Lys; also called native IgG1
In the case of B3, the Kd in test [9] worked out at 3100 nM; in [10], 1200 nM. Moreover, the “FcγRIIIa F/FcγRIIb ratio (KD for FcγRIIb / KD for FcγRIIIa F)” value in [11] was found to be 2.5.

B4: GpH7-A5/GpH7-B3/GpL16-k0 (antibody, human IgG1, kappa)
heavy 1: not shown
heavy 2: not shown
light: DIVMTQSPLSLPVTPGEPASISCQASESLVHSNRNTYLHWYLQKPGQSPQLLIYKVSNRFSGVPDRFSGSGSGTDFTLKISRVEAEDVGVYYCSQNTHVPPTFGQGTKVEIERTVAAPSVFIFPPSDEQLKSGTASVVCLLNNFYPREAKVQWKVDNALQSGNSQESVTEQDSKDSTYSLSSTLTLSKADYEKHKVYACEVTHQGLSSPVTKSFNRGEC
notes: also called A5/B3; HeCon Ab
For B4, the Kd came to 3100 nM in test [9] and 1600 nM in [10]. Moreover, the “FcγRIIIa F/FcγRIIb ratio (KD for FcγRIIb / KD for FcγRIIIa F)” value in test [11] was found to be 1.9.

B5: GpH7-A5/GpH7-B78/GpL16-k0 (antibody, human IgG1, kappa)
heavy 1: not shown
heavy 2: QVQLVQSGAEVKKPGASVTVSCKASGYTFTDYEMHWIRQPPGEGLEWIGAIDPKTGDTAYSESFQDRVTLTADKSTSTAYMELSSLTSEDTAVYYCTRFYSYTYWGQGTLVTVSSASTKGPSVFPLAPSSKSTSGGTAALGCLVKDYFPEPVTVSWNSGALTSGVHTFPAVLQSSGLYSLSSVVTVPSSSLGTQTYICNVNHKPSNTKVDKKVEPKSCDKTHTCPPCPAPELLGGPDVFLFPPKPKDTLMISRTPEVTCVVVDVSHEDPEVKFNWYVDGVEVHNAKTKPREEQYNSTYRVVSVLTVLHQDWLNGKEYKCKVSNKALPLPEEKTISKAKGQPREPQVYTLPPSRDELTKNQVSLTCLVKGFYPSDIAVEWESNGQPENNYKTTPPVLDSDGSFFLYSKLTVDKSRWQQGNVFSCSVMHEALHNHYTQESLSLSP
light: DIVMTQSPLSLPVTPGEPASISCQASESLVHSNRNTYLHWYLQKPGQSPQLLIYKVSNRFSGVPDRFSGSGSGTDFTLKISRVEAEDVGVYYCSQNTHVPPTFGQGTKVEIERTVAAPSVFIFPPSDEQLKSGTASVVCLLNNFYPREAKVQWKVDNALQSGNSQESVTEQDSKDSTYSLSSTLTLSKADYEKHKVYACEVTHQGLSSPVTKSFNRGEC
notes: S239D/A330L/I332E in one H chain only; also called A5/B78
Turning to B5, the Kd in [9] came to 430 nM; in test [10], 54 nM. Further, in [11], the “FcγRIIIa F/FcγRIIb ratio (KD for FcγRIIb / KD for FcγRIIIa F)” value came out at 7.9.
